Tested on: U87 glioma cells
Experiment: Matrigel invasion assay
Type: cell-based, human
Conditions: antibody 2 g, 6 h, vs control mouse IgG; p=0.001; FIG. 4C
Procedure: Matrigel invasion assay. Invasion assay was performed using modified Boyden chambers with polycarbonate Nucleopore membrane, essentially as described (Arvatz et al. 2011, ibid.). Briefly, filters (6.5 mm in diameter, 8 μm pore-size) were coated with Matrigel (30 μl); Cells (2×10^5) in 100 μl of serum-free medium were seeded in triplicate on the upper part of each chamber in the presence of the indicated antibody, and the lower compartment was filled with 600 μl medium supplemented with 10% FCS. After incubation for 5 h at 37° C. in a 5% CO2 incubator, non-invading cells on the upper surface of the filter were wiped with a cotton swab, and migrated cells on the lower surface of the filter were fixed, stained with 0.5% crystal violet (Sigma) and counted by examination of at least seven microscopic fields (Barash et al., J Natl Cancer Inst. 110:1102-1114, 2018).
Thereafter, the antibody effect on cell invasion was examined. Briefly, U87 glioma cells (1×10^5) were plated onto Matrigel-coated 8-μm Transwell filters in the presence of control mouse IgG or mAb A54 ([…]). Invading cells adhering to the lower side of the membrane were visualized after 6 h (FIGS. 4A-B) and quantified (FIG. 4C; number of invading cells per high power field; *p=0.001) as described in ‘Methods’.

B1: mAb A54: heparanase-neutralizing murine monoclonal antibody, IgG1-Kappa; VH SEQ ID NO: 7, VL SEQ ID NO: 8; binds HBD-II of heparanase (antibody, listed as Mus musculus, V domains shown)
VH: QVQLQQSGAELAKPGASVRMSCKASGYTFTNYWMHWVKQRPGQGLEWIGYINPTTGYTEYNQKFKDKATLTADKSSSTAYMQLSSLTSEDSAVYYCARGGAGYDYDEDYAMDYWGQGTSVTVSS
VL: DIVLTQSPASLAVSLGQRATISCRASESVEYFGTSYMNWYQQKPGQPPKLLIYLASILESGIPARFSGSGSGTDFTLNIHPVEEEDAATYYCQQSNEDPYTFGGGTKLEIK
  attenuation of invasion of U87 glioma cells through Matrigel: ~90%
